Laboratory results from the Immune Epitope Database (IEDB).

Tests used:
Assay in all cases: IEDB peptide-MHC binding, purified MHC/competitive/radioactivity; filed as Kd, often an IC50 or EC50 that approximates it; ≥ and ≤ were set here for values at or beyond the usual limits of such assays
HLA-A*11:01 = biological target: HLA-A*11:01
HLA-A*33:01 = biological target: HLA-A*33:01
HLA-A*03:01 = biological target: HLA-A*03:01
HLA-A*31:01 = biological target: HLA-A*31:01
HLA-A*68:01 = biological target: HLA-A*68:01
[1] = source organism: Vaccinia virus WR
[2] = source organism: SARS coronavirus Tor2
[3] = source organism: Dengue virus 2 Jamaica/1409/1983
[4] = source organism: Dengue virus 1 Brazil/97-11/1997
[5] = source organism: Dengue virus 4 Philippines/H241/1956
[6] = source organism: Vaccinia virus Copenhagen
[7] = source organism: Lymphocytic choriomeningitis virus (strain Armstrong)
[8] = source organism: Mammarenavirus whitewaterense
[9] = source organism: Dengue virus 3 Martinique/1243/1999
[10] = source organism: Dengue virus 4 Dominica/814669/1981

LSDENYLLK showed a Kd (HLA-A*11:01; [1]) of 1.59 nM, a Kd (HLA-A*33:01; [1]) of at least 66100 nM and a Kd (HLA-A*03:01; [1]) of 591 nM. The Kd (HLA-A*31:01; [1]) was 1500 nM and the Kd (HLA-A*68:01; [1]) was 13500 nM.
TVVIGTSKFY showed a Kd (HLA-A*11:01; [2]) of 809 nM, a Kd (HLA-A*33:01; [2]) of 1240 nM and a Kd (HLA-A*03:01; [2]) of 1100 nM. For the same sequence, the Kd (HLA-A*31:01; [2]) was 1860 nM and the Kd (HLA-A*68:01; [2]) was 1500 nM.
YMPSMKRFR gave a Kd (HLA-A*33:01; [3]) of 7.57 nM and a Kd (HLA-A*31:01; [3]) of 100 nM.
For ASITPNNLNK, the Kd (HLA-A*11:01; [1]) was 1.11 nM, the Kd (HLA-A*33:01; [1]) was at least 29800 nM and the Kd (HLA-A*03:01; [1]) was 1.29 nM. For the same sequence, the Kd (HLA-A*31:01; [1]) was 47.6 nM and the Kd (HLA-A*68:01; [1]) was 6.94 nM.
Sequence LLSGQGPMK has a Kd (HLA-A*03:01; [4]) of 40.2 nM.
With ASKKDKLTVY the Kd (HLA-A*11:01; [1]) was 1220 nM, the Kd (HLA-A*33:01; [1]) was at least 70000 nM and the Kd (HLA-A*03:01; [1]) was 6590 nM. For the same sequence, the Kd (HLA-A*31:01; [1]) was 5290 nM and the Kd (HLA-A*68:01; [1]) was at least 70200 nM.
GIFVDTMSIY showed a Kd (HLA-A*11:01; [1]) of 815 nM, a Kd (HLA-A*33:01; [1]) of at least 28500 nM and a Kd (HLA-A*03:01; [1]) of 3790 nM. The Kd (HLA-A*31:01; [1]) was at least 70000 nM and the Kd (HLA-A*68:01; [1]) was 3380 nM.
For QSYKETVHK, the Kd (HLA-A*11:01; [1]) was 43.4 nM, the Kd (HLA-A*33:01; [1]) was at least 77700 nM and the Kd (HLA-A*03:01; [1]) was 21.7 nM. The Kd (HLA-A*31:01; [1]) was 5550 nM and the Kd (HLA-A*68:01; [1]) was 37.6 nM.
For AALDGTFQR, the Kd (HLA-A*11:01; [1]) was 2.62 nM, the Kd (HLA-A*33:01; [1]) was 177 nM and the Kd (HLA-A*03:01; [1]) was 6210 nM. The Kd (HLA-A*31:01; [1]) was 36.4 nM and the Kd (HLA-A*68:01; [1]) was 1.95 nM.
Sequence FTTRLLSSTR has a Kd (HLA-A*33:01; [5]) of 85.4 nM and a Kd (HLA-A*68:01; [5]) of 25.5 nM.
In the case of QIFNEDTSY, the Kd (HLA-A*11:01; [1]) is reported as 73.2 nM, the Kd (HLA-A*33:01; [1]) is reported as at least 77700 nM and the Kd (HLA-A*03:01; [1]) is reported as 3610 nM. The Kd (HLA-A*31:01; [1]) was at least 77900 nM and the Kd (HLA-A*68:01; [1]) was 6330 nM.
Sequence RLRMDKLQLK has a Kd (HLA-A*03:01; [3]) of 7.91 nM.
In the case of PVYISQFSYK, the Kd (HLA-A*11:01; [6]) is reported as 19.2 nM, the Kd (HLA-A*33:01; [6]) is reported as 54 nM and the Kd (HLA-A*03:01; [6]) is reported as 1.26 nM. The Kd (HLA-A*31:01; [6]) was 13.3 nM and the Kd (HLA-A*68:01; [6]) was 95.2 nM.
DLPVWLAYR showed a Kd (HLA-A*33:01; [3]) of 4 nM.
Work on ASLPTYLSSR yielded a Kd (HLA-A*31:01; [5]) of 7.6 nM.
HTCMSECVR gave a Kd (HLA-A*11:01; [1]) of 67.3 nM, a Kd (HLA-A*33:01; [1]) of 324 nM and a Kd (HLA-A*03:01; [1]) of 3200 nM. For the same sequence, the Kd (HLA-A*31:01; [1]) was 25.4 nM and the Kd (HLA-A*68:01; [1]) was 57.8 nM.
With VSMTYLYNK the Kd (HLA-A*11:01; [1]) was 1.36 nM, the Kd (HLA-A*33:01; [1]) was 806 nM and the Kd (HLA-A*03:01; [1]) was 72.5 nM. For the same sequence, the Kd (HLA-A*31:01; [1]) was 2.76 nM and the Kd (HLA-A*68:01; [1]) was 82.7 nM.
With LTWLGLNSR the Kd (HLA-A*33:01; [4]) was 43.8 nM and the Kd (HLA-A*31:01; [4]) was at least 63300 nM.
Work on LFQLCTFTK yielded a Kd (HLA-A*11:01; [2]) of 191 nM, a Kd (HLA-A*33:01; [2]) of 875 nM and a Kd (HLA-A*03:01; [2]) of 438 nM. The Kd (HLA-A*31:01; [2]) was 574 nM and the Kd (HLA-A*68:01; [2]) was 579 nM.
With VTTIMFLAR the Kd (HLA-A*11:01; [2]) was 24.6 nM, the Kd (HLA-A*33:01; [2]) was 167 nM and the Kd (HLA-A*03:01; [2]) was 329 nM. It also gave a Kd (HLA-A*31:01; [2]) of 45.4 nM and a Kd (HLA-A*68:01; [2]) of 84.6 nM.
In the case of SQNPLAELK, the Kd (HLA-A*11:01; [2]) is reported as 306 nM, the Kd (HLA-A*33:01; [2]) is reported as at least 48100 nM and the Kd (HLA-A*03:01; [2]) is reported as at least 22700 nM. It also gave a Kd (HLA-A*31:01; [2]) of 3700 nM and a Kd (HLA-A*68:01; [2]) of at least 63100 nM.
With DILGVLTIK the Kd (HLA-A*11:01; [1]) was 1120 nM, the Kd (HLA-A*33:01; [1]) was 194 nM and the Kd (HLA-A*03:01; [1]) was 714 nM. For the same sequence, the Kd (HLA-A*31:01; [1]) was 12600 nM and the Kd (HLA-A*68:01; [1]) was 343 nM.
For IVHSYLKNYK, the Kd (HLA-A*11:01; [1]) was 58 nM, the Kd (HLA-A*33:01; [1]) was 9720 nM and the Kd (HLA-A*03:01; [1]) was 97.3 nM. For the same sequence, the Kd (HLA-A*31:01; [1]) was 27.5 nM and the Kd (HLA-A*68:01; [1]) was 257 nM.
RNPYENILYK gave a Kd (HLA-A*11:01; [7]) of 3480 nM, a Kd (HLA-A*33:01; [7]) of at least 37800 nM and a Kd (HLA-A*03:01; [7]) of 7040 nM. The Kd (HLA-A*31:01; [7]) was 16400 nM and the Kd (HLA-A*68:01; [7]) was 5510 nM.
SRIFEDLVWK gave a Kd (HLA-A*11:01; [8]) of 620 nM, a Kd (HLA-A*33:01; [8]) of at least 59100 nM and a Kd (HLA-A*03:01; [8]) of 872 nM. It also gave a Kd (HLA-A*31:01; [8]) of 8380 nM and a Kd (HLA-A*68:01; [8]) of 572 nM.
In the case of EAKQPATLR, the Kd (HLA-A*33:01; [3]) is reported as 10.1 nM and the Kd (HLA-A*68:01; [3]) is reported as 74.8 nM.
With LINRFTMRHK the Kd (HLA-A*03:01; source organism: Dengue virus 2 Peru/IQT2913/1996) was 14.1 nM.
In the case of MLNILNRRRR, the Kd (HLA-A*31:01; [3]) is reported as 14.1 nM.
In the case of WFFNNYLRK, the Kd (HLA-A*11:01; [2]) is reported as 81.8 nM, the Kd (HLA-A*33:01; [2]) is reported as 894 nM and the Kd (HLA-A*03:01; [2]) is reported as 403 nM. The Kd (HLA-A*31:01; [2]) was 3880 nM and the Kd (HLA-A*68:01; [2]) was 391 nM.
QTSVNTVVR gave a Kd (HLA-A*11:01; [1]) of 923 nM, a Kd (HLA-A*33:01; [1]) of 7260 nM and a Kd (HLA-A*03:01; [1]) of at least 63600 nM. The Kd (HLA-A*31:01; [1]) was 4010 nM and the Kd (HLA-A*68:01; [1]) was 73.3 nM.
Sequence SVLCVKKFY has a Kd (HLA-A*11:01; [1]) of 372 nM, a Kd (HLA-A*33:01; [1]) of 12900 nM and a Kd (HLA-A*03:01; [1]) of 13300 nM. It also gave a Kd (HLA-A*31:01; [1]) of 7980 nM and a Kd (HLA-A*68:01; [1]) of 2100 nM.
With MWSLMYFHRR the Kd (HLA-A*33:01; [9]) was 31.2 nM and the Kd (HLA-A*31:01; [9]) was 11.5 nM.
With ALLALNDMGK the Kd (HLA-A*11:01; [9]) was 196 nM and the Kd (HLA-A*03:01; [9]) was 28.4 nM.
ISSIIRSLPK was tested, and the Kd (HLA-A*11:01; [8]) was 23 nM.
CTGKFKIVK was tested, and the Kd (HLA-A*11:01; [3]) was 98.3 nM.
EMGANFKADR showed a Kd (HLA-A*33:01; [9]) of 1540 nM.
In the case of SYSMCTGKFK, the Kd (HLA-A*33:01; [3]) is reported as 841 nM.
Work on KAINVLRGFR yielded a Kd (HLA-A*31:01; [3]) of 0.824 nM.
SMLNIMNRRK gave a Kd (HLA-A*03:01; [4]) of 49.6 nM.
DIQQWEPSR gave a Kd (HLA-A*33:01; [3]) of 113 nM.
MWSLMYFHR was tested, and the Kd (HLA-A*33:01; [9]) was 1.36 nM and the Kd (HLA-A*31:01; [9]) was 28.9 nM.
KMVEPWLSSK showed a Kd (HLA-A*03:01; [5]) of 11.5 nM.
HVQTKPGLFK showed a Kd (HLA-A*11:01; [5]) of 389 nM and a Kd (HLA-A*03:01; [5]) of 8.44 nM.
MVLAFITFLR showed a Kd (HLA-A*11:01; [5]) of 971 nM, a Kd (HLA-A*33:01; [5]) of 22.3 nM and a Kd (HLA-A*31:01; [5]) of 4.34 nM. The Kd (HLA-A*68:01; [5]) was 17.4 nM.
Work on EASIQPITR yielded a Kd (HLA-A*68:01; source organism: Homo sapiens) of 50 nM.
TSGSPIIDK showed a Kd (HLA-A*11:01; source organism: Dengue virus 2 16681-PDK53) of 69.4 nM.
With MGYWIESSK the Kd (HLA-A*03:01; [5]) was 83.9 nM.
Work on YVSAIAQTEK yielded a Kd (HLA-A*11:01; [3]) of 311 nM and a Kd (HLA-A*68:01; [3]) of 24 nM.
Sequence VFLRKLTSR has a Kd (HLA-A*33:01; [10]) of 178 nM and a Kd (HLA-A*31:01; [10]) of 66.8 nM.
TTVITPMLR was tested, and the Kd (HLA-A*33:01; [9]) was 36.7 nM and the Kd (HLA-A*68:01; [9]) was 11.8 nM.
FMALVAFLR was tested, and the Kd (HLA-A*33:01; [3]) was 10.7 nM, the Kd (HLA-A*31:01; [3]) was 16.9 nM and the Kd (HLA-A*68:01; [3]) was 50.6 nM.
In the case of DYMTSMKRFK, the Kd (HLA-A*33:01; [4]) is reported as 21.2 nM.
In the case of SQLAKRFSR, the Kd (HLA-A*31:01; source organism: Dengue virus 3 Singapore/8120/1995) is reported as 2.07 nM.
Work on VSLLGSALLK yielded a Kd (HLA-A*11:01; [5]) of 45.3 nM and a Kd (HLA-A*03:01; [5]) of 24.9 nM.
STYGWNLVR showed a Kd (HLA-A*33:01; [3]) of 2.91 nM, a Kd (HLA-A*03:01; [3]) of 63.5 nM and a Kd (HLA-A*31:01; [3]) of 3.26 nM. For the same sequence, the Kd (HLA-A*68:01; [3]) was 8.81 nM.
